Experimental data as given in patent US20170073408A1 (Amgen, published 2017).
Positions count from the first letter of the chain named. One block for each binder: values may come before it.

Tests used:
[1] = target: T1, recombinant human activin A (mature) (human, UniProt P08476 311-426); assay: Biacore premix competition: 2 nM rhActivinA + 20 nM antibody over immobilized AKA1
T1 construct: also called r-HuActivin A; rhActivin A
T1 sequence: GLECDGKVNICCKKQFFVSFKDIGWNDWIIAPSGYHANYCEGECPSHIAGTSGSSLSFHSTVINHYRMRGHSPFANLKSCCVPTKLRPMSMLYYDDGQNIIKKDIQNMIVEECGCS

[2] = target: T2, A/B13-39; assay: Biacore blocking: 100 nM antibody + diluted conditioned medium (CM) of the ligand over ActRIB-Fc surface
T2 construct: also called Activin A 13/39 B
T2 activin A/B chimeric subunit: T1 sequence with K13R, K14Q, V18I, S19D, K21R, D22L, S33T, H36Y, A37G

[3] = target: T3, A/B82-107; assay: as above
T3 activin A/B chimeric subunit: T1 sequence with V82I, R87S, P88T, Y94F, G97E, Q98Y, I101V, K103R, I105V, Q106P

[4] = target: T1, recombinant human activin A (mature); assay: cell-based or functional assay
[5] = target: T1, recombinant human activin A (mature); assay: KinExA solution equilibrium, activin A-coated beads
Protocol: Solution-based equilibrium-binding assays using KinExA™ technology (Sapidyne Instruments, Inc.) were used to determine the dissociation equilibrium (KD) of activin A binding to antibody molecules. This solution-based assay is considered to be more sensitive than the BIAcore assay in some instances. Reacti-Gel™ 6× was pre-coated with about 50 μg/ml activin A overnight, and then blocked with BSA. 30 pM and 100 pM of antibody samples were incubated with various concentrations (0.5 pM to 5 nM) of activin A in sample buffer at room temperature for 8 hours before being run through the activin A-coated beads. The amount of the bead-bound antibody was quantified by fluorescent (Cy5) labeled goat anti-human-Fc antibody at 1 mg/ml in superblock. The binding signal was proportional to the concentration of free antibody at equilibrium with a given activin A concentration. KD was obtained from the nonlinear regression of the competition curves using a dual-curve one-site homogeneous binding model provided in the KinEx ATM software (Sapidyne Instruments, Inc.). […] A2 and A3 bound to activin A at ˜15 pM and ˜8 pM, respectively.

[6] = target: T4, BMP4 (UniProt P12644 293-408); assay: BIAcore, antibody pre-incubated with ligand, ActRIIB/Fc on chip
T4 construct: Bought
T4 sequence (looked up): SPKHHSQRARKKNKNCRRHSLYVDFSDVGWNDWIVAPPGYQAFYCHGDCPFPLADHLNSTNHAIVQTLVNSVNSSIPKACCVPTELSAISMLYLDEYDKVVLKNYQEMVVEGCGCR
Protocol: (§1) These assays were performed using BlAcore® technology, to determine the selectivity of binding of antibodies A1, A2 and A3 to various activins and other TGF-β family members, including activin A, activin B, activin AB, inhibin A, GDF-8, GDF-11, TGF-β-1, TGF-β-3, and BMP4 (all from R & D Systems). […] Because BlAcore assays detect changes in the refractive index, the difference between the response detected with injection over the immobilized receptor surfaces compared with the response detected with injection over the control surface in the absence of any antibody represents the actual binding of the various ligands to the receptor. With pre-incubation of antibodies and activin and TGF-β molecules, a change (increase or decrease) in binding response indicates antibody binding to the TGFβ family of molecules. The antibodies all bound to activin A but not to activin B, GDF-8, GDF-11, TGF-β-1, TGF-β-3, and BMP4, thus indicating specificity for activin A.

[7] = target: T5, GDF-8 (UniProt O14793 267-375); assay: as above
T5 construct: Bought
T5 sequence (looked up): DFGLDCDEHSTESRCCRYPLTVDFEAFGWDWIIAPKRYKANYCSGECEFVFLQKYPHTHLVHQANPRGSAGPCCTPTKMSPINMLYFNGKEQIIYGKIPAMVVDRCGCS
Protocol: as §1

[8] = target: T6, GDF-11 (UniProt O95390 299-407); assay: as above
T6 construct: Bought
T6 sequence (looked up): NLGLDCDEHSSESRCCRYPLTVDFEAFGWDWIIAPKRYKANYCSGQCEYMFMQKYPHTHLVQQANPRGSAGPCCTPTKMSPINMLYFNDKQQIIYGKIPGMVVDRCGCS
Protocol: as §1

[9] = target: T7, TGF-β-1 (UniProt P01137 279-390); assay: as above
T7 construct: Bought
T7 sequence (P01137 279-390 limits assumed): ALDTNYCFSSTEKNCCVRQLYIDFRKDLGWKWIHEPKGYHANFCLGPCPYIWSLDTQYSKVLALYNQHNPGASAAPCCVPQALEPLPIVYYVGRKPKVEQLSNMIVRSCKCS
Protocol: as §1

[10] = target: T8, TGF-β-3 (UniProt P10600 301-412); assay: as above
T8 construct: Bought
T8 sequence (looked up): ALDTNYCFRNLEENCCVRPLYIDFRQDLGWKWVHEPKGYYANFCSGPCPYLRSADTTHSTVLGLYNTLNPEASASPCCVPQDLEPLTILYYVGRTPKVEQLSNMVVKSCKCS
Protocol: as §1

[11] = target: T9, activin B (UniProt P09529 293-407); assay: affinity analysis of Example 15 (antibody immobilized on a surface)
T9 construct: Bought (R & D Systems)
T9 sequence (looked up): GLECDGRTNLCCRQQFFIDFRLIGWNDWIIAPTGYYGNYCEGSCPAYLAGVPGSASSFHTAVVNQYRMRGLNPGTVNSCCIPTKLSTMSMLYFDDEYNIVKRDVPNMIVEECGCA

[12] = target: T1, recombinant human activin A (mature); assay: affinity analysis of Example 15 (method of the KD not given)
[13] = target: T1, recombinant human activin A (mature); assay: BIAcore blocking assay, 1 nM activin A; competitor rhActivin RIB/Fc chimera on chip
Protocol: (§2) Blocking assays were conducted on immobilized recombinant human activin RIB-Fc chimera surfaces, recombinant human activin RIIB-Fc chimera surfaces, and recombinant human RIIA-Fc chimera recombinant surfaces, as described in Example 5. Monoclonal antibodies A1, A2, AKA1, and AKA2 on each chimera surface were incubated with 1 nM activin A, and the relative binding response (%) was measured.

[14] = target: T1, recombinant human activin A (mature); assay: Biacore: 1 nM Activin A + sample over rhActivin RIIB/Fc Chimera surface; rising ('carry on') curve
Protocol: as §2

[15] = target: T1, recombinant human activin A (mature); assay: Biacore blocking: 1 nM Activin A + antibody over rhActRIB-Fc chimera surface. No unit in the drawn table; M by Table 7, which prints this value rounded as 0.18 nM

B1: A6 (antibody, V domains shown)
VH: QVQLQQWGAGLLKPSETLSLTCAVYGGSFSAYYWSWIRQPPGKGLEWIGEINHSGGTNYNPSLKSRVTISVDTSKNQFSLKLSSVTAADTAVYYCARVQWLELAYFDYWGQGTLVTVSS
VL: DIQMTQSPSSLSASVGDRVTITCRASQSISNYLNWYQQRPGKAPKLLIYATSSLQSGVPSRFSGSGSGTDFTLTISSLQPEDFVSYYCQQSYSISPTFGGGTKVENK
notes: also called antibody A6; L6H6
binding result [1]: binds
binding result [2]: binds
binding result [3]: binds

B3: anti-activin A monoclonal antibody A3 (antibody, human IgG2, kappa, V domains shown)
VH: EVQLVESGGGLVQPGGSLRLSCAASGFTFSSYWMSWVRQAPGKGLECVANIKQDGSEEYYVDSVKGRFTISRDNAKNSLYLQMNSLRAEDTAVYYCARGSSSWYYYNYGMDVWGQGTTVTVSS
VL: DIQMTQSPSSLSASVGDRVTITCRASQGIRNDLGWYQQKPGKAPKRLIYAASSLQSGVPSRFSGSGSGTEFTLTISSLQPEDFATYYCRQQNTYPLTFGGGTKVEIKR
notes: Fully human antibody from XenoMouse hybridoma; also called L3H3
Cell IC50 (nM); luciferase activity of C2C12/pMARE reporter cells, activin A fixed at 4 nM [4]: < 3 nM
Kd [5]: ~0.008 nM
binding result [6]: no binding
binding result [7]: no binding
binding result [8]: no binding
binding result [9]: no binding
binding result [10]: no binding
binding result [11]: no binding
Kd [12]: ~0.011 nM
binding result [2]: binds
binding result [3]: no binding (tested: 100 nM)

B4: A9 (antibody, V domains shown)
VH: QVQLVESGGGVVQPGRSLRLSCAASGFTFSSYGMHWVRQAPGKGLEWVAVIWYDGSNKYHADSVKGRFTISRDNSKNTLYLQVNSLRAEDTAVYYCVRSRNWNYDNYYYGLDVWGQGTTVTVSS
VL: DIQMTQSPSSLSASVGDRVTITCRASQGIRNNLGWYQQKPGKAPKRLIYAASSLQSGVPSRFSGSGSGTEFTLTISSLQPEDFTTYYCLQHNSYPWTFGQGTKVEIK
notes: also called antibody A9; L9H9
binding result [2]: binds
binding result [3]: no binding (tested: 100 nM)

B5: A8 (antibody, V domains shown)
VH: QVQLQESGPGLVKPSETLSLTCTVSGGSINSFYWSWIRQPPGKGLEWIGYIYYSGSTNYNPSLKRRVTISVDTSKTQFSLKLSSVTAADTAVYYCARDSIAAPFDYWGQGTLVTVSS
VL: DIVMTQSPDSLAVSLGERATITCKSSQSILYSSNNKKYLVWYQQKPGQPPKLIIYWTSMRESGVPDRFSGSGSGTDFTLTISSLQAEDVAVYYCQQYYSTPWTFGQGTKVEIK
notes: also called antibody A8; L8H8
binding result [1]: binds
binding result [2]: binds
binding result [3]: binds

B9: A14 (antibody, V domains shown)
VH: QVQLVQSGAEVKKPGASVKVSCKTSGYTFTSYGISWVRQAPGQGLEWMGWISPYNGNTNYAQKFQGRVTMTTDKSTSTAYMELRSLRSDDTAVYYCARDQDYYDSSGWDPWGQGTLVTVSS
VL: SYELTQPPSVSVSPGQTASITCSGDKLGDKYAFWYQQKPGQSPVLVFYHDTKRPSGIPERFSGSNSGNTATLTISGTQAMDEADYHCQAWDSSTVFGGGTKLTVL
notes: also called antibody A14; L14H14
binding result [1]: binds
binding result [2]: no binding (tested: 100 nM)
binding result [3]: binds

More lines, now with the values ahead:

Cell IC50 (nM); luciferase activity of C2C12/pMARE reporter cells, activin A fixed at 4 nM [4]: < 3 nM
Kd [5]: ~0.015 nM
binding result [6]: no binding
binding result [7]: no binding
binding result [8]: no binding
binding result [9]: no binding
binding result [10]: no binding
binding result [11]: no binding
Kd [12]: ~0.025 nM
EC50 [13]: 0.18 nM
EC50 (read off the curve) [14]: ~1 nM
binding result [2]: binds
EC50 [15]: 0.177 nM
B2: anti-activin A monoclonal antibody A2 (antibody, human IgG2, kappa, V domains shown)
VH: B4 VH
VL: B3 VL with D32N, A84T, R89L, Q91H, T93S, L96W, G100Q
notes: Fully human antibody from XenoMouse hybridoma; also called L2H2

binding result [1]: binds
binding result [2]: binds
binding result [3]: binds
B6: A5 (antibody, V domains shown)
VH: B5 VH with R65S
VL: B5 VL with S82N
notes: also called antibody A5; L5H5

binding result [1]: binds
binding result [2]: binds
binding result [3]: no binding (tested: 100 nM)
B7: A7 (antibody, V domains shown)
VH: QVQLVDSGGGVVQPGRSLRLSCAASGFTFISYGMHWVRQAPGKGLEWVAVIWYDGSTEYYADSVKGRFTISRDNSKNTLYLQMNSLRAEDTAVYYCARERQWLYHYGMDVWGQGTTVTVSS
VL: B4 VL with S26G, N32D, G34V, T84A, S93T, W96F, Q100P, E105D
notes: also called antibody A7; L7H7

binding result [1]: binds
binding result [2]: binds
binding result [3]: binds
B8: A13 (antibody, V domains shown)
VH: B9 VH with T24A, W47R, P53A, K74T, S77T, D109G, P110H
VL: B9 VL with A32V, F33C, V44E, F47I, H49L, T51N, H86Y
notes: also called antibody A13; L13H13
